Data reported in PMC7821874 (Science Advances, 2020).

T1: wild-type (WT) human CAV1α with a C-terminal 6X-Histidine tag (human), Q03135
T1 chain: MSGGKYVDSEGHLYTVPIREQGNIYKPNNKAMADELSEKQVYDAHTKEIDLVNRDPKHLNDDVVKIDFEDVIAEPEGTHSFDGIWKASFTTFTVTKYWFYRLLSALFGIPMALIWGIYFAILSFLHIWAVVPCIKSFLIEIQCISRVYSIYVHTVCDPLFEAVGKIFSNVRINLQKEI


Columns and labels:
[1] = target: the molecule itself; test: negative stain electron microscopy
[2] = target: T1, wild-type (WT) human CAV1α with a …; test: negative stain electron microscopy; conditions: remark: other sources report otherwise

| stoichiometry N [2] | Binder | binding result [1] |
| --- | --- | --- |
| – | CAV1β with a 6X His-tag at the C terminus (natural protein, human, UniProt Q03135 32-178, looked up) MADELSEKQVYDAHTKEIDLVNRDPKHLNDDVVKIDFEDVIAEPEGTHSFDGIWKASFTTFTVTKYWFYRLLSALFGIPMALIWGIYFAILSFLHIWAVVPCIKSFLIEIQCISRVYSIYVHTVCDPLFEAVGKIFSNVRINLQKEI | binds |
| – | CAV1β-Venus (natural protein, human, UniProt Q03135 32-178, looked up) MADELSEKQVYDAHTKEIDLVNRDPKHLNDDVVKIDFEDVIAEPEGTHSFDGIWKASFTTFTVTKYWFYRLLSALFGIPMALIWGIYFAILSFLHIWAVVPCIKSFLIEIQCISRVYSIYVHTVCDPLFEAVGKIFSNVRINLQKEI | binds |
| 10 | wild-type (WT) human CAV1α with a C-terminal 6X-Histidine tag, Q03135 1-178 (natural protein) MSGGKYVDSEGHLYTVPIREQGNIYKPNNKAMADELSEKQVYDAHTKEIDLVNRDPKHLNDDVVKIDFEDVIAEPEGTHSFDGIWKASFTTFTVTKYWFYRLLSALFGIPMALIWGIYFAILSFLHIWAVVPCIKSFLIEIQCISRVYSIYVHTVCDPLFEAVGKIFSNVRINLQKEI | – |
